From paper PMC3921674 (2014)

Key:
[1] = target: WDR5 F266A (isothermal calorimetry) (UniProt P61964 1-334, F266A); assay: ITC
[2] = target: WDR5 (wild type, isothermal calorimetry) (UniProt P61964 1-334); assay: ITC

Kd [1] | Kd [2] | Binder
0.6 µM | 0.97 µM | GSARAEVHLRKSAFDMFNFLASKHRQPPEYNPNDEEEEEVQ [MLL1(3762-3802)]
34.7 µM | 31.1 µM | ARTKQTARKS [H3(1-10)]
